Laboratory results published in article PMC11960969, “Mdga2 deficiency leads to an aberrant activation of BDNF/TrkB signaling that underlies autism-relevant synaptic and behavioral changes in mice” (PLOS Biology, 2025).

Assays:
[1] = biological target: T1, recombinant TrkB protein (Homo sapiens, UniProt Q16620); experiment: Surface plasmon resonance (Biacore CM5, immobilized TrkB); assay type: binding; conditions: SPR, TrkB immobilized on Biacore CM5 chip, analyte at several concentrations, Biacore T100 Evaluation software
T1 construct: Full-length human TrkB or MDGA2 cDNA was cloned into the pcDNA6-His vector; His; made in house; host or cells: HEK293T cells
Protocol: (§1) Fig 3 MDGA2 interacts with TrkB and suppresses TrkB activity. (A) Primary hippocampal neurons derived from Mdga2^ +/− (Het) mice and their wild-type (WT) littermates at DIV 7 were treated with different doses of BDNF for 30 min. Equal amounts of protein lysates were subjected to immunoprecipitation (IP) with an anti-TrkB antibody, followed by immunoblotting with an anti-phosphotyrosine (pTyr) antibody or the anti-TrkB antibody. The pTyr levels were quantified by densitometry, normalized to total TrkB levels, and then compared to those of WT controls. n = 3 per group. (B) WT mouse brain lysates were subjected to IP with an anti-MDGA2 antibody and a control IgG, and immunoblotted (IB) for the components indicated. mBDNF, mature BDNF; ImBDNF, immature BDNF. […] Immunoprecipitated TrkB levels were quantified by densitometry, normalized to input levels, and compared to respective controls (set to one arbitrary units). n = 3 per group. […] Levels of phosphorylated proteins were quantified by densitometry, normalized to respective total protein levels and compared to controls (set to one arbitrary units). n = 6 per group. […] P-values were determined by two-tailed unpaired Student t-test in (A) and one-way ANOVA with Tukey’s multiple comparisons test in (H, I, J). *p < 0.05, **p < 0.01, ***p < 0.001, ns: not significant. […]

[2] = system: TrkB (TrkB-VN); experiment: BiFC assay in HeLa cells (TrkB-VN with MDGA2-VC or ΔMAM-VC); assay type: cell-based, human; conditions: 24 h, Venus fluorescence
Protocol: as §1

[3] = system: TrkB signaling (pTrkB, pAkt, pmTOR); experiment: Immunoblotting of TrkB/Akt/mTOR phosphorylation in primary neurons transfected with MDGA2, ΔMAM or V930I; assay type: cell-based, mouse; conditions: for pAkt level normalized to total protein / pTrkB level normalized to total protein / pmTOR level normalized to total protein: KO neurons transfected, WT/Ctrl set to one
Protocol: Fig 3 MDGA2 interacts with TrkB and suppresses TrkB activity. (A) Primary hippocampal neurons derived from Mdga2^ +/− (Het) mice and their wild-type (WT) littermates at DIV 7 were treated with different doses of BDNF for 30 min. Equal amounts of protein lysates were subjected to immunoprecipitation (IP) with an anti-TrkB antibody, followed by immunoblotting with an anti-phosphotyrosine (pTyr) antibody or the anti-TrkB antibody. The pTyr levels were quantified by densitometry, normalized to total TrkB levels, and then compared to those of WT controls. n = 3 per group. (B) WT mouse brain lysates were subjected to IP with an anti-MDGA2 antibody and a control IgG, and immunoblotted (IB) for the components indicated. mBDNF, mature BDNF; ImBDNF, immature BDNF. (C) Hippocampal neurons from WT mice at DIV 7 were immunostained with antibodies against MDGA2 (red) and TrkB (green), and then counter-stained with DAPI (blue). Images were acquired by a confocal microscope. Scale bar: 10 μm. (D) Surface plasmon resonance (SPR) analysis of the binding between recombinant MDGA2 protein and recombinant TrkB protein. TrkB was immobilized on a Biacore CM5 chip and tested for its binding with MDGA2 at the concentrations indicated. (E) Computer simulation of the binding mode of TrkB and MDGA2. The predicted binding domain of TrkB (the d5 domain) is highlighted by a red square and labeled in brown. The predicted binding domain of MDGA2 (the MAM domain) is highlighted by a red square and labeled in yellow. (F) HEK293T cells were co-transfected with TrkB-Flag and GFP-tagged full-length MDGA2 (MDGA2-GFP) or an MDGA2 deletion fragment lacking the entire MAM domain (ΔMAM-GFP). Cell lysates were subjected to IP with control IgG and antibodies against Flag or GFP, and immunoblotted for the components indicated. […] The scheme of MDGA2-ΔMAM is also shown. (G) HeLa cells were co-transfected with TrkB that is tagged with the N-terminal Venus fragment (TrkB-VN) and full-length MDGA2 or MDGA2-ΔMAM that are tagged with the C-terminal Venus fragment (MDGA2-VC or ΔMAM-VC) for 24 h. After immunostaining with antibodies against MDGA2/MDGA2-ΔMAM (pink) and TrkB (red), cells were observed by confocal microscopy. Venus signal (green) indicates the interaction between MDGA2 and TrkB. Schematic diagrams depicting the BiFC assay are also shown. Scale bars: 10 μm. (H, I) Equal amounts of protein lysates from primary neurons derived from Het, KO, and their WT littermate mice (H), and from WT primary neurons transfected with GFP control, MDGA2-GFP or ΔMAM-GFP (I) were subjected to IP with IgG and an anti-BDNF antibody, and then immunoblotted for the components indicated. Immunoprecipitated TrkB levels were quantified by densitometry, normalized to input levels, and compared to respective controls (set to one arbitrary units). n = 3 per group. (J) Neurons derived from KO mice were transfected with GFP control (Ctrl), MDGA2-GFP, or MDGA2-ΔMAM-GFP, and neurons derived from their WT littermates were transfected with GFP control (Ctrl). Equal amounts of protein lysates were subjected to immunoblotting for the proteins indicated. Levels of phosphorylated proteins were quantified by densitometry, normalized to respective total protein levels and compared to controls (set to one arbitrary units). n = 6 per group. Data represent mean ± SEM. P-values were determined by two-tailed unpaired Student t-test in (A) and one-way ANOVA with Tukey’s multiple comparisons test in (H, I, J). *p < 0.05, **p < 0.01, ***p < 0.001, ns: not significant. The data underlying this figure can be found in S1 Data, specifically in the sheet labeled “Figure 3”.
Fig 7 The autism spectrum disorder (ASD)-associated MDGA2 V930I mutation impairs the MDGA2-TrkB interaction and MDGA2’s inhibitory effect on the tyrosine kinase B (TrkB) signaling. (A) Schematic depiction of the WT human MDGA2 and its V930I mutation constructs that are tagged with GFP. […]

[4] = system: TrkB; experiment: Co-IP of endogenous MDGA2 and TrkB from WT mouse brain lysates; assay type: binding
[5] = system: BDNF-TrkB interaction; experiment: BDNF-TrkB Co-IP (anti-BDNF or anti-TrkB) in primary neurons / brain of Het, KO, WT and in WT neurons transfected with MDGA2 or ΔMAM; assay type: cell-based, mouse; conditions: IP anti-BDNF, Fig 3I
Protocol: as §1

[6] = system: TrkB; experiment: BDNF-induced TrkB tyrosine phosphorylation in primary hippocampal neurons (IP anti-TrkB, immunoblot pTyr); assay type: cell-based, mouse; conditions: primary hippocampal neurons DIV 7, 30 min; Mdga2+/- and Mdga2-/- vs WT neurons; Fig 3A, S3A
Protocol: as §1

[7] = system: ASD animal models; conditions: cited from earlier work
[8] = system: TrkB (TrkB-Flag); experiment: Co-IP of MDGA2 and its truncations with TrkB-Flag in HEK293T cells; assay type: binding, human; conditions: HEK293T cells co-transfected with TrkB-Flag and GFP-tagged MDGA2 constructs
Protocol: as §1, with “BDNF. (C) Hippocampal neurons from WT mice at DIV 7 were immunostained with antibodies against MDGA2 (red) and TrkB (green), and then counter-stained with DAPI (blue). Images were acquired by a confocal microscope. Scale bar: 10 μm. (D) Surface plasmon resonance (SPR) analysis of the binding between recombinant MDGA2 protein and recombinant TrkB protein. TrkB was immobilized on a Biacore CM5 chip and tested for its binding with MDGA2 at the concentrations indicated. (E) Computer simulation of the binding mode of TrkB and MDGA2. The predicted binding domain of TrkB (the d5 domain) is highlighted by a red square and labeled in brown. The predicted binding domain of MDGA2 (the MAM domain) is highlighted by a red square and labeled in yellow.” for “BDNF.”

T1 sequence (Q16620 32-822): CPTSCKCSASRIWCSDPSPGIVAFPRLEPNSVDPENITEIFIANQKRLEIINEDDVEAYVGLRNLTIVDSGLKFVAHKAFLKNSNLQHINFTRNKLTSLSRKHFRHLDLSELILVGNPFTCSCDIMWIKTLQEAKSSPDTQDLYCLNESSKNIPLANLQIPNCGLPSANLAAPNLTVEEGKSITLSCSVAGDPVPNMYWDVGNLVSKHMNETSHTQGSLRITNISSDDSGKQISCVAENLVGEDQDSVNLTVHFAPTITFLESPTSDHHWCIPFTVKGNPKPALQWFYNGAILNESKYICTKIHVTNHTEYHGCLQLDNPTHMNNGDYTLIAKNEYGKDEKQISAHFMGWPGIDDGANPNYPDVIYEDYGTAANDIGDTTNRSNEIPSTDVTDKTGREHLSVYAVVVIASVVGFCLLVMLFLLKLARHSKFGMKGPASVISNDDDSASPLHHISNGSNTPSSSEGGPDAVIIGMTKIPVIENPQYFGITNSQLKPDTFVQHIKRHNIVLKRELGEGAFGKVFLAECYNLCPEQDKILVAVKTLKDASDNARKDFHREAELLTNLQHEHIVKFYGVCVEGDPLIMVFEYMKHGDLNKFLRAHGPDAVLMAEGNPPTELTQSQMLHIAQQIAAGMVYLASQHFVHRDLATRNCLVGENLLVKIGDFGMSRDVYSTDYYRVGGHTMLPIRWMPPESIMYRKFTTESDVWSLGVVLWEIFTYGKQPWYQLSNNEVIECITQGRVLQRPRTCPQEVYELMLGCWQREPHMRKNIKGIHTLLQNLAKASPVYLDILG

B1: MDGA2: MAM domain containing glycosylphosphatidylinositol anchor 2; full-length human, recombinant or transfected (protein, UniProt Q7Z553 1-956, looked up)
chain: MDLLYGLVWLLTVLLEGISGQGVYAPPTVRIVHSGLACNIEEERYSERVYTIREGETLELTCLVTGHPRPQIRWTKTAGSASDRFQDSSVFNETLRITNIQRHQGGRYYCKAENGLGSPAIKSIRVDVYYLDDPVVTVHQSIGEAKEQFYYERTVFLRCVANSNPPVRYSWRRGQEVLLQGSDKGVEIYEPFFTQGETKILKLKNLRPQDYANYSCIASVRNVCNIPDKMVSFRLSNKTASPSIKLLVDDPIVVNPGEAITLVCVTTGGEPAPSLTWVRSFGTLPEKTVLNGGTLTIPAITSDDAGTYSCIANNNVGNPAKKSTNIIVRALKKGRFWITPDPYHKDDNIQIGREVKISCQVEAVPSEELTFSWFKNGRPLRSSERMVITQTDPDVSPGTTNLDIIDLKFTDFGTYTCVASLKGGGISDISIDVNISSSTVPPNLTVPQEKSPLVTREGDTIELQCQVTGKPKPIILWSRADKEVAMPDGSMQMESYDGTLRIVNVSREMSGMYRCQTSQYNGFNVKPREALVQLIVQYPPAVEPAFLEIRQGQDRSVTMSCRVLRAYPIRVLTYEWRLGNKLLRTGQFDSQEYTEYAVKSLSNENYGVYNCSIINEAGAGRCSFLVTGKAYAPEFYYDTYNPVWQNRHRVYSYSLQWTQMNPDAVDRIVAYRLGIRQAGQQRWWEQEIKINGNIQKGELITYNLTELIKPEAYEVRLTPLTKFGEGDSTIRVIKYSAPVNPHLREFHCGFEDGNICLFTQDDTDNFDWTKQSTATRNTKYTPNTGPNADRSGSKEGFYMYIETSRPRLEGEKARLLSPVFSIAPKNPYGPTNTAYCFSFFYHMYGQHIGVLNVYLRLKGQTTIENPLWSSSGNKGQRWNEAHVNIYPITSFQLIFEGIRGPGIEGDIAIDDVSIAEGECAKQDLATKNSVDGAVGILVHIWLFPIIVLISILSPRR
modifications: full-length GFP tag in some constructs
notes: MAM domain containing glycosylphosphatidylinositol anchor 2; full-length human, recombinant or transfected
- Kd [1]: 24.4 nM
- interaction with TrkB (BiFC) [2]: could interact with full-length MDGA2
- pAkt level normalized to total protein ([3]; replicate 1): 1.48 arbitrary units
- pTrkB level normalized to total protein ([3]; replicate 1): 1.52 arbitrary units
- pmTOR level normalized to total protein ([3]; replicate 1): 0.88 arbitrary units
- pAkt level normalized to total protein ([3]; replicate 2): 1.42 arbitrary units
- pTrkB level normalized to total protein ([3]; replicate 2): 1.19 arbitrary units
- pmTOR level normalized to total protein ([3]; replicate 2): 1.02 arbitrary units
- pAkt level normalized to total protein ([3]; replicate 3): 1.72 arbitrary units
- pTrkB level normalized to total protein ([3]; replicate 3): 1.31 arbitrary units
- pmTOR level normalized to total protein ([3]; replicate 3): 1.26 arbitrary units
- pAkt level normalized to total protein ([3]; replicate 4): 1.9 arbitrary units
- pTrkB level normalized to total protein ([3]; replicate 4): 1.16 arbitrary units
- pmTOR level normalized to total protein ([3]; replicate 4): 1.35 arbitrary units
- pAkt level normalized to total protein ([3]; replicate 5): 1.87 arbitrary units
- pTrkB level normalized to total protein ([3]; replicate 5): 1.08 arbitrary units
- pmTOR level normalized to total protein ([3]; replicate 5): 1.92 arbitrary units
- pAkt level normalized to total protein ([3]; replicate 6): 1.07 arbitrary units
- pTrkB level normalized to total protein ([3]; replicate 6): 1.03 arbitrary units
- pmTOR level normalized to total protein ([3]; replicate 6): 1.41 arbitrary units
- overactivation of TrkB signaling (pTrkB, pAkt, pmTOR) upon expression ([3]; Mdga2-/- neurons, Fig 3J, n = 6): could be reversed upon the expression of full-length MDGA2
- interaction of endogenous MDGA2 (Co-IP) ([4]; IP anti-MDGA2, Fig 3B): immunoprecipitated TrkB and NLGN1 but not mBDNF or ImBDNF
- interaction of endogenous MDGA2 (Co-IP) ([4]; IP anti-TrkB, S3C Fig): specifically immunoprecipitated MDGA2 but not MDGA1
- interaction between BDNF and TrkB upon overexpression [5]: attenuated the interaction between BDNF and TrkB

B2: brain-derived neurotrophic factor (protein)
chain: APMKEVNVHGQGNLAYPGVRTHGTLESVNGPRAGSRGLTTTSLADTFEHVIEELLDEDQKVRPNEENHKDADLYTSRVMLSSQVPLEPPLLFLLEEYKNYLDAANMSMRVRRHSDPARRGELSVCDSISEWVTAADKKTAVDMSGGTVTVLEKVPVSKGQLKQYFYETKCNPMGYTKEGCRGIDKRHWNSQCRTTQSYVRALTMDSKKRIGWRFIRIDTSCVCTLTIKRGR
- Phosphorylation of TrkB induced by BDNF [6]: showed a dose-dependent manner and was much stronger in Mdga2^ +/− and Mdga2^−/− neurons than in WT neurons
- repetitive self-grooming behavior and anxiety-like behavior ([7]; overexpression of BDNF, neonatally isolated rats): rescued repetitive self-grooming behavior and anxiety-like behavior
- social deficits ([7]; valproic acid-exposed mice): attenuated social deficits in valproic acid-exposed mice

B3: MDGA2-ΔM2: MDGA2 lacking the C-terminal region (aa 834–921) of MAM domain (protein)
chain: PPTVRIVHSGLACNIEEERYSERVYTIREGETLELTCLVTGHPRPQIRWTKTAGSASDRFQDSSVFNETLRITNIQRHQGGRYYCKAENGLGSPAIKSIRVDVYYLDDPVVTVHQSIGEAKEQFYYERTVFLRCVANSNPPVRYSWRRGQEVLLQGSDKGVEIYEPFFTQGETKILKLKNLRPQDYANYSCIASVRNVCNIPDKMVSFRLSNKTASPSIKLLVDDPIVVNPGEAITLVCVTTGGEPAPSLTWVRSFGTLPEKTVLNGGTLTIPAITSDDAGTYSCIANNNVGNPAKKSTNIIVRALKKGRFWITPDPYHKDDNIQIGREVKISCQVEAVPSEELTFSWFKNGRPLRSSERMVITQTDPDVSPGTTNLDIIDLKFTDFGTYTCVASLKGGGISDISIDVNISSSTVPPNLTVPQEKSPLVTREGDTIELQCQVTGKPKPIILWSRADKEVAMPDGSMQMESYDGTLRIVNVSREMSGMYRCQTSQYNGFNVKPREALVQLIVQYPPAVEPAFLEIRQGQDRSVTMSCRVLRAYPIRVLTYEWRLGNKLLRTGQFDSQEYTEYAVKSLSNENYGVYNCSIINEAGAGRCSFLVTGKAYAPEFYYDTYNPVWQNRHRVYSYSLQWTQMNPDAVDRIVAYRLGIRQAGQQRWWEQEIKINGNIQKGELITYNLTELIKPEAYEVRLTPLTKFGEGDSTIRVIKYSAPVNPHLREFHCGFEDGNICLFTQDDTDNFDWTKQSTATRNTKYTPNTGPNADRSGSKEGFYMYIETSRPRLEGEKARLLSPVFSIAPKNPYGPTNTQDLATKNSVD
modifications: left off: GFP, end not stated, kept
notes: MDGA2 lacking the C-terminal region (aa 834–921) of MAM domain
- interaction with TrkB (Co-IP) [8]: not M2 abolished the interaction
